Test results reported in patent publication US20210393777A1 (SHANGHAI JUNSHI BIOSCIENCES, published 2021).

Biological target: T1, human PCSK9 (human, UniProt Q8NBP7 31-692)
T1 construct: Soluble analyte in the ForteBio assay; also called human proprotein convertase subtilisin/kexin type 9
Assay: ForteBio BLI, biotinylated antibody on streptavidin probes, PCSK9 in solution
Description: ForteBio affinity assays were implemented according to the prior art. […] After the buffer exchange, the protein content was measured by the absorbance at 280 nm, and the concentration was adjusted to 2 mg/mL. 2 mg of Sulfo-NHS-Biotin was equilibrated to room temperature and added to […] of ultrapure water to give a 10 mM Biotin stock solution. 1 mL of 2 mg/mL JS002 and evolocumab were transferred to a new EP tube, and 8 μL of biotin stock solution was added according to a ratio of protein:biotin=1:6. The mixture was well mixed and incubated at room temperature for 1-2 h. […] After the buffer exchange, the protein content was measured by the absorbance at 280 nm, and the concentration was adjusted to 1-2 mg/mL. The biotinylated protein was aliquoted in tubes at 0.1 mL per tube, and was stored at −80° C. with no more than 1 freeze-thaw. […] The affinity constant was calculated by the formula=koff/kₒₙ.

Binder	Kd [nM]	koff [s⁻¹]	kon [M⁻¹ s⁻¹]
JS002 (antibody, human IgG4 S228P, kappa, V domains shown, Full-length humanized antibody; In the ForteBio assay it was biotinylated with Sulfo-NHS-Biotin (protein:biotin 1:6) and held on streptavidin probes; Tested from various liquid formulations (no. 20, 28-31); also called recombinant humanized anti-PCSK9 monoclonal antibody; anti-PCSK9 antibody) VH: QVQLQESGPGLVKPSQTLSLTCTVSGFSISSYGIHWIRQSPGKGLEWIGVIWRGGITDYNAPFMSRVTISKDNSKNQVSFKLSSVTAADTAVYYCANHRDWGQGTLVTVSS VL: DIQMTQSPSSLSASVGDRVTITCQASQDINKYIDWYQHKPGKAPKLLIHYASTLQPGVPSRFSGSGSGRDYTFTISSLQPEDIATYYCLQYDDLWTFGQGTKVEIKR	0.0215	1.3e-06	60200
evolocumab (antibody, V domains shown) VH: QVQLVQSGAEVKKPGASVKVSCKASGYTLTSYGISWVRQAPGQGLEWMGWVSFYNGNTNYAQKLQGRGTMTTDPSTSTAYMELRSLRSDDTAVYYCARGYGMDVWGQGTTVTVSS VL: QSALTQPASVSGSPGQSITISCTGTSSDVGGYNSVSWYQQHPGKAPKLMIYEVSNRPSGVSNRFSGSKSGNTASLTISGLQAEDEADYYCNSYTSTSMVFGGGTKLTVL	0.651	3.21e-05	49200
